Results as given in patent EP4596582A1.

Columns and labels:
[1] = biological target: human B7-H3-4Ig-His protein (human) (UniProt Q5ZPR3); assay: ELISA, antigen coated at 1 ug/ml
[2] = biological target: monkey B7-H3-4Ig-His protein (monkey); assay: ELISA, antigen coated at 1 ug/ml
[3] = biological target: human B7-H3-4Ig on CHO-S cells (CHO-S-human B7-H3-4Ig) (human) (UniProt Q5ZPR3); assay: cell-based or functional assay
[4] = biological target: human B7-H3 on human tumor cells (MCF-7, HT29, NCI-N87, HCC1806, HCC827) (human) (UniProt Q5ZPR3); assay: cell-based or functional assay
Chain of human B7-H3 on human tumor cells (MCF-7, HT29, NCI-N87, HCC1806, HCC827) (human) (Q5ZPR3 29-534): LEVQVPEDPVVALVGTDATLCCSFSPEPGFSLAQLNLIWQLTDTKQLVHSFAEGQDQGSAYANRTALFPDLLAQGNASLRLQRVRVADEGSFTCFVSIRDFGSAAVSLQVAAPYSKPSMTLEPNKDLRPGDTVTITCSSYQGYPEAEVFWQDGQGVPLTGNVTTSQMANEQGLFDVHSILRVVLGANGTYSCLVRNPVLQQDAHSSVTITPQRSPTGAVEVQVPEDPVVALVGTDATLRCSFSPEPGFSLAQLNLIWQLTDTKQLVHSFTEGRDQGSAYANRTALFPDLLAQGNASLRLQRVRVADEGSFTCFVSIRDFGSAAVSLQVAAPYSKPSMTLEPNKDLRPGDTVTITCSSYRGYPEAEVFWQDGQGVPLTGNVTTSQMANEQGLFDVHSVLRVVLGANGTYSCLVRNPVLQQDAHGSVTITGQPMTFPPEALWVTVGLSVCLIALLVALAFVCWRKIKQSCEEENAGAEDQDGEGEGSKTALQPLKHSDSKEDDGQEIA

[5] = biological target: human B7-H3-4Ig-His protein (human) (UniProt Q5ZPR3); assay: ELISA, antigen coated at 1 ug/ml; remark: listed apart in the source
[6] = biological target: human B7-H3-4Ig-His protein (human) (UniProt Q5ZPR3); assay: ELISA, antigen coated at 1 ug/ml (specificity panel)

Chain of human B7-H3-4Ig-His protein (human) (Q5ZPR3 other isoform, or with tags, fused parts or gaps): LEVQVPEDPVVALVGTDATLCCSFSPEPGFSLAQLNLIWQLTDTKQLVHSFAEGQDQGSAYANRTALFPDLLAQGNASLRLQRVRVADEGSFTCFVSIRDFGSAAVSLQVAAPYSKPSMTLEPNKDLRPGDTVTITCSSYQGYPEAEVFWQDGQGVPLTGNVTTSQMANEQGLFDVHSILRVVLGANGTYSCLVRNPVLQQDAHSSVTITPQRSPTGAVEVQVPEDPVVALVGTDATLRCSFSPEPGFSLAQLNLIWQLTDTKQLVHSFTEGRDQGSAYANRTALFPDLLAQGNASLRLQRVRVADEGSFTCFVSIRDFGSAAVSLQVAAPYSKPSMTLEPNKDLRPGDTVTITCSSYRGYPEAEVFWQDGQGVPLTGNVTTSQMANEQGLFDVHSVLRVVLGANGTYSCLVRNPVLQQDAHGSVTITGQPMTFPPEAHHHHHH
Chain of human B7-H3-4Ig on CHO-S cells (CHO-S-human B7-H3-4Ig) (human) (Q5ZPR3 29-534): as the sequence (Q5ZPR3 29-534) above

EC50 [1]: 0.0138 µg/mL
EC50 [2]: 0.0237 µg/mL
ADCC: EC50 of luciferase signal of Jurkat-NFAT/Luciferase-CD16A effector cells with CHO-S-human B7-H3-4Ig target cells [3]: 0.108 µg/mL
Endocytosis EC50 on HCC827 cells (PHrodo, flow cytometry) [4]: 0.0152 µg/mL
Endocytosis EC50 on HCC1806 cells (PHrodo, flow cytometry) [4]: 0.0572 µg/mL
Endocytosis EC50 on NCI-N87 cells (PHrodo, flow cytometry) [4]: 0.0241 µg/mL
EC50 [5]: 0.00336 µg/mL
EC50 [6]: 0.00336 µg/mL
B1: control B7-H3 antibody DS7300 (antibody, INN chains, looked up, V domains shown)
VH: QVQLVQSGAEVKKPGSSVKVSCKASGYTFTNYVMHWVRQAPGQGLEWMGYINPYNDDVKYNEKFKGRVTITADESTSTAYMELSSLRSEDTAVYYCARWGYYGSPLYYFDYWGQGTLVTVSS
VL: EIVLTQSPATLSLSPGERATLSCRASSRLIYMHWYQQKPGQAPRPLIYATSNLASGIPARFSGSGSGTDFTLTISSLEPEDFAVYYCQQWNSNPPTFGQGTKVEIK
